The source of these data is US20050042213A1, “Methods and pharmaceutical compositions for modulating heparanase activation and uses thereof” (InSight Biopharmaceuticals Ltd., priority 2003, published 2005).

In the test the target is T1, pro-heparanase (H60) (Homo sapiens, UniProt Q9Y251, K307R).
T1 sequence (Q9Y251 36-543 K307R): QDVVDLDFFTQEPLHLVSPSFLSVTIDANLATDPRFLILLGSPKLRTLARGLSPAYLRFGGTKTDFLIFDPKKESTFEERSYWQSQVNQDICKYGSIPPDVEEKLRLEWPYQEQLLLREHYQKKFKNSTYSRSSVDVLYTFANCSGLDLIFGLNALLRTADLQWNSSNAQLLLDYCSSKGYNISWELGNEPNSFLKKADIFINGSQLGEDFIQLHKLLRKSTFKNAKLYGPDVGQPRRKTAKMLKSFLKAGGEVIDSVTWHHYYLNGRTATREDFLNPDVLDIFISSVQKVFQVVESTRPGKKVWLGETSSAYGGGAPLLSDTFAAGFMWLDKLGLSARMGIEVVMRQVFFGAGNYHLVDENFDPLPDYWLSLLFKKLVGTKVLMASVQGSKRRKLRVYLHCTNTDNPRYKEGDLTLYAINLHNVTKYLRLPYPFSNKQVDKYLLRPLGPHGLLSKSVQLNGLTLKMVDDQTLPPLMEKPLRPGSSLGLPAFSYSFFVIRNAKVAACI
In words: Circular dichroism spectrometry of pro-heparanase. The note with it: fraction of secondary structure of H60. Details: key to a helix / β strand / β turn / Un-ordered: fraction of secondary structure (0-1). As to the method:
Circular Dichroism spectrometry—Circular Dichroism spectra were recorded using a JASCO 500 spetropolarimeter. Far Ultraviolet measurements (260-200 nm) were performed in a 0.1 mm demountable cuvette at 25° C., scanning at a rate of 10 nm/min. Pro-heparanase was assayed at a concentration of 0.72 mg/ml in 20 mM sodium phosphate buffer pH 6.8 supplemented with 300 mM NaCl. Effect of heparin on pro-heparanase spectra was determined at a concentration of 100 μM, and the inhibitor was added at a concentration of 15 μM. Base-line recordings were performed in the presence and absence of heparin to correct the pro-heparanase spectra.
Background: CD spectra are sensitive to the conformation of chiral molecules.

Numbering of substitutions follows the chain as printed.

B1: H60 − heparin: purified 60 kDa pro-heparanase without heparin (protein)
chain: T1 sequence (Q9Y251 36-543 K307R)
Molecule B1 had an Un-ordered of 0.33, an a helix of 0.29, a β strand of 0.26 and a β turn of 0.12.

B2: H60 + heparin: 60 kDa pro-heparanase in the presence of heparin (protein, UniProt Q9Y251 36-543, looked up)
pro-form: T1 sequence (Q9Y251 36-543 K307R) with R272K
modifications: pro-form with heparin
notes: 60 kDa pro-heparanase in the presence of heparin
Regarding B2, the Un-ordered amounted to 0.3, the a helix was 0.44, the β strand turned out to be 0.26 and the β turn is given as 0.
